The chains are these.
B1: EB1-GST (natural protein, human, UniProt Q15691 1-268, looked up)
chain: MAVNVYSTSVTSDNLSRHDMLAWINESLQLNLTKIEQLCSGAAYCQFMDMLFPGSIALKKVKFQAKLEHEYIQNFKILQAGFKRMGVDKIIPVDKLVKGKFQDNFEFVQWFKKFFDANYDGKDYDPVAARQGQETAVAPSLVAPALNKPKKPLTSSSAAPQRPISTQRTAAAPKAGPGVVRKNPGVGNGDDEAAELMQQVNVLKLTVEDLEKERDFYFGKLRNIELICQENEGENDPVLQRIVDILYATDEGFVIPDEGGPQEEQEEY
notes: also called GST-tagged EB1; source: E. coli BL21 DE3, purified (Glutathione Sepharose)

Settings in all cases: both partners purified
Experiment [1] has as its target T1, 6xHis-tagged WT Ska1 (human, UniProt Q96BD8 1-255).
T1 construct: WT Ska1 from the plasmid pEC-S-CDF-His Ska1; Probably whole Ska1 (1-255); also called 6xHis Ska1 WT; 6xHis-Ska1; source: E. coli BL21 DE3, purified (Ni2+-NTA)
As to the kind of experiment: pull-down; competition: EB1-GST preincubated with the SXIP peptide aptamer for 2 h, GSH beads added, then incubated with Ska1 WT protein; rising doses of peptide.

For experiment [2], the target named is T1, 6xHis-tagged WT Ska1. As to the kind of experiment: high-speed atomic force microscopy (HS-AFM); proteins (10-30 nM; 10 nM in the frames shown) in BRB80 buffer (80 mM Pipes, 1 mM EGTA, 1 mM MgCl2, pH 6.9) on mica, tapping mode, 150 ms per frame; EB1 alone, Ska1 alone and their mixture.
For experiment [3], the target named is B1. Put plainly: pull-down.

T1 sequence (Q96BD8 whole entry): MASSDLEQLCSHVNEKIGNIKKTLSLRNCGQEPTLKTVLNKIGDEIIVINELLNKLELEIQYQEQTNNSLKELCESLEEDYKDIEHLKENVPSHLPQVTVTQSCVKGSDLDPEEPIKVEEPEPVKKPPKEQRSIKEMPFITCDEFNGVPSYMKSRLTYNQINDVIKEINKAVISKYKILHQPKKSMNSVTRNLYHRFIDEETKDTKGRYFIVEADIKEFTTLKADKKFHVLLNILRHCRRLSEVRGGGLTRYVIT

Consider B1, for which, in experiment [1], the binding result is on record as “binds”.

B2: recombinant EB1 (HS-AFM and microtubule experiments) (natural protein, human, UniProt Q15691 1-268, looked up)
chain: MAVNVYSTSVTSDNLSRHDMLAWINESLQLNLTKIEQLCSGAAYCQFMDMLFPGSIALKKVKFQAKLEHEYIQNFKILQAGFKRMGVDKIIPVDKLVKGKFQDNFEFVQWFKKFFDANYDGKDYDPVAARQGQETAVAPSLVAPALNKPKKPLTSSSAAPQRPISTQRTAAAPKAGPGVVRKNPGVGNGDDEAAELMQQVNVLKLTVEDLEKERDFYFGKLRNIELICQENEGENDPVLQRIVDILYATDEGFVIPDEGGPQEEQEEY
notes: recombinant EB1 with N-terminal calponin homology domains (EB1-N), linker and C-terminal dimer region (EB1-C) seen by HS-AFM; The only EB1 expression construct that the methods describe is GST-tagged EB1 in pGEX 5x3; also called EB1 dimer; source: recombinant
Take B2: the binding result in experiment [2] was “binds”.

Regarding ALNGQSRIPVLKRHTR [SXIP peptide aptamer], the “percent reduction of EB1-Ska1 association at 1:5 M ratio of EB1:peptide” value in experiment [3] is approximately 70%.

The record behind these values is article PMC9926122, “Kinetochore-microtubule attachment in human cells is regulated by the interaction of a conserved motif of Ska1 with EB1” (The Journal of Biological Chemistry, 2022).
